Assay [1] addresses 2-Pyrone synthase (2-PS) from Gerbera hybrida (Gerbera hybrida). Description: X-ray crystal structure, homodimer interface.
The next assay deals with CHS. The following applies: cited from earlier work.
A short description of assay [2]: 14C malonyl-CoA assay of CHS mutants, products analysed by TLC and autoradiography (naringenin vs resveratrol). It counts as biochemical. To be noted: TLC autoradiography. An excerpt: Wild type CHS produces chalcone, which spontaneously converts to naringenin, the position of which is indicated by the arrow on the left. Wild type STS produces resveratrol, the position of which is indicated by the arrow of the right. Function conversion of CHS to STS (i.e., the production of the alternate product from the same intermediate) results in diminished production of naringenin and increased production of resveratrol. Various mutants of CHS produce varying degrees of resveratrol, showing that CHS activity can be altered to STS-like activity to different extents by different mutations.
Mutant CHS (SEQ ID NO: 1) has altered activity based on assays conducted with ^14C malonyl-CoA. Products were extracted with ethyl acetate and analyzed by silica gel thin layer chromatography (TLC) and visualized by autoradiography.

Assay [3] in a line: Malonyl-CoA decarboxylation by C164S mutant (crystallographic and functional assay). It counts as biochemical. An excerpt:
Asn336 appears to play a crucial role in the decarboxylation reaction. […] In the hexanoyl-CoA complex, the side chain amide of Asn336 provides a hydrogen bond to the carbonyl oxygen of the thioester. This interaction would stabilize the enolate anion resulting from decarboxylation of malonyl-CoA (see FIG. 6). At the same time, the lack of formal positive charge at Asn336 may preserve the partial carbanion character of this resonance-stabilized anion, and thus the nucleophilicity of the carbanion form.

Assay [4] in a line: Activity and kinetics of 18xCHS / 8xCHS compared with wild type CHS and STS. The class given is biochemical. The following applies: listed as 8×CHS.

Numbering of substitutions follows the chain as printed. Numbers in names are those of the source. Entries after “also recorded” stand apart in the source; their conditions may differ.

Molecule “2-Pyrone synthase (2-PS) from Gerbera hybrida (enzyme)” came in with a surface area buried per monomer by the dimerization surface in assay [1] of 1800 Å^2.

As to `C/C=C/C/C=C/CCC(=O)[C@H]1O[C@H]1C(N)=O` [Cerulenin], the “inhibition of CHS” value in the assay with CHS is “potent irreversible inhibitor of CHS”. Moreover, in the assay on CHS (preincubation with coumaroyl-CoA or malonyl-CoA), the “inactivation of CHS after preincubation with substrate” value is listed as “Preincubation of CHS with coumaroyl-CoA prevents inactivation by cerulenin, but pre-incubation with malonyl-CoA does not”.

B1: 4B: alfalfa CHS mutant: A1 (four), A2 (five), A3 (M158G, Y160F), A4 (K269G) (protein, UniProt P30074 1-389, looked up, variant D96A V98L V99A V100M T131S S133T G134T V135P M137L M158G Y160F K269G)
Chalcone synthase 2: MVSVSEIRKAQRAEGPATILAIGTANPANCVEQSTYPDFYFKITNSEHKTELKEKFQRMCDKSMIKRRYMYLTEEILKENPNVCEYMAPSLDARQAMLAMEVPRLGKEAAVKAIKEWGQPKSKITHLIVCSTTTPDLPGADYQLTKLLGLRPYVKRYGMFQQGCFAGGTVLRLAKDLAENNKGARVLVVCSEVTAVTFRGPSDTHLDSLVGQALFGDGAAALIVGSDPVPEIEKPIFEMVWTAQTIAPDSEGAIDGHLREAGLTFHLLGDVPGIVSKNITKALVEAFEPLGISDYNSIFWIAHPGGPAILDQVEQKLALKPEKMNATREVLSEYGNMSSACVLFILDEMRKKSTQNGLKTTGEGLEWGVLFGFGPGLTIETVVLRSVAI
In the case of B1, in assay [2], the naringenin amount entry is reported as “reduced amounts of naringenin compared to wild type CHS” and the resveratrol amount result is reported as “various amounts of resveratrol”.

B2: C164S: alfalfa CHS C164S mutant (protein, listed as Medicago sativa)
chain: MVSVSEIRKAQRAEGPATILAIGTANPANCVEQSTYPDFYFKITNSEHKTELKEKFQRMCDKSMIKRRYMYLTEEILKENPNVCEYMAPSLDARQDMVVVEVPRLGKEAAVKAIKEWGQPKSKITHLIVCTTSGVDMPGADYQLTKLLGLRPYVKRYMMYQQGSFAGGTVLRLAKDLAENNKGARVLVVCSEVTAVTFRGPSDTHLDSLVGQALFGDGAAALIVGSDPVPEIEKPIFEMVWTAQTIAPDSEGAIDGHLREAGLTFHLLKDVPGIVSKNITKALVEAFEPLGISDYNSIFWIAHPGGPAILDQVEQKLALKPEKMNATREVLSEYGNMSSACVLFILDEMRKKSTQNGLKTTGEGLEWGVLFGFGPGLTIETVVLRSVAI
For B2, the “catalytic / decarboxylation activity on malonyl-CoA” value in assay [3] was “retains decarboxylation activity; also recorded: retains limited catalytic activity; also recorded: produces acetyl-CoA”.

B3: 16B: alfalfa CHS mutant: V98L, T131S, S133T, G134T, V135P, M137L, M158G, Y160F (protein, UniProt P30074 1-389, looked up, variant V98L T131S S133T G134T V135P M137L M158G Y160F)
Chalcone synthase 2: B1 Chalcone synthase 2 with A96D, A99V, M100V, G269K
B3: in assay [2], the naringenin amount entry is “reduced amounts of naringenin compared to wild type CHS” and the resveratrol amount result was “various amounts of resveratrol”. Also, the “activity and kinetics compared with STS” value in assay [4] is “activity that is similar to the 18×CHS mutant”.

B4: A4: alfalfa CHS mutant: A4 (L268K, K269G, D270A, G273D) (protein, UniProt P30074 1-389, looked up, variant L268K K269G D270A G273D)
Chalcone synthase 2: B2 chain with S164C, L268K, K269G, D270A, G273D
As for B4, in assay [2], the “product profile (naringenin or chalcone versus resveratrol), cyclization specificity” value is recorded as “no effect on cyclization specificity”.

(Values after patent publication US7285380B2, “Methods of producing polyketide synthase mutants and compositions and uses thereof” (The Salk Institute for Biological Studies, priority 2000, dated 2007).)
